Source: paper PMC5449630
Where two headings read alike, the source gives them in different places.

B1: FAM-20p/36c 5' overhang duplex (dsDNA)
DNA 1: TAGCACCTACCGATTGTATG
DNA 2: CGACACAAAAACGTATCATACAATCGGTAGGTGCTA
modifications: 3'-phosphate on strand 1; 5'-phosphate on strand 2
B2: FAM-20p/20c blunt duplex (dsDNA)
DNA 1: TAGCACCTACCGATTGTATG
DNA 2: CATACAATCGGTAGGTGCTA
modifications: 3'-phosphate on strand 1; 5'-phosphate on strand 2

Key:
mPNKP D170A [1] = molecular target: T1, mPNKP D170A (Mus musculus (murine), UniProt Q9JLV6 1-522, D170A); test: EMSA
mPNKP D170A [2] = molecular target: T1, mPNKP D170A; test: EMSA; remark: listed apart in the source

T1 sequence (Q9JLV6 whole entry D170A): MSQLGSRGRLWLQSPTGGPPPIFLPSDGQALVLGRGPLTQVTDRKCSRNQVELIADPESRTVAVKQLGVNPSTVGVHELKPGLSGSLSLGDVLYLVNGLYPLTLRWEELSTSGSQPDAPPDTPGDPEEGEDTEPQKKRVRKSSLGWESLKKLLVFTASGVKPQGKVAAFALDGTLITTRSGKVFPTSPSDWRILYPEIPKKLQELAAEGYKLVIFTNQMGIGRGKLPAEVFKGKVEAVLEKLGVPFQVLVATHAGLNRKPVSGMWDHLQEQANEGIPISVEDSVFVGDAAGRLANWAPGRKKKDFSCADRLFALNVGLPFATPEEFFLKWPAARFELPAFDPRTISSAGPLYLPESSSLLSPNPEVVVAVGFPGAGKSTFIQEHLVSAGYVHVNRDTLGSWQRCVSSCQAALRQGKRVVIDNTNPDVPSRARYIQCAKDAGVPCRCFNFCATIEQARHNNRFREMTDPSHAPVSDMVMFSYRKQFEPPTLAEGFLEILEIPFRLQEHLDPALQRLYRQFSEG

Binder	binding result (mPNKP D170A [1])	binding result (mPNKP D170A [2])
B1	binds	
TAGCACCTACCGATTGTATG (ssDNA, 3'-phosphate) [FAM-20p ssDNA]		binds
B2	binds	
